# Source: patent US20210380699A1 (published 2021)
# T1: PD-L2-Fc (R&D Systems) (UniProt Q9BQ51 20-219, limits assumed)
# T1 construct: not shown: Fc of the bought protein
# T1 sequence (looked up): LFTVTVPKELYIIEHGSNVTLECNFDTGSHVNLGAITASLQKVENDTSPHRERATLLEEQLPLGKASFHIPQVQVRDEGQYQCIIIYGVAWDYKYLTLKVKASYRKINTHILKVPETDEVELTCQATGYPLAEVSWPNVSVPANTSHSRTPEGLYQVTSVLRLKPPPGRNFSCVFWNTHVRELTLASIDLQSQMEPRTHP
# Tests used:
# [1] = target: T2, Human PD-L1 expressed on cells (human, UniProt Q9NZQ7 19-290); test: flow cytometry on CHO hPD-L1 cells, competitor biotin-CD80-Fc, n = 2
# T2 construct: One entry used for transfected and natively expressing cells; also called CHO-S hPD-L1; CHO human PD-L1
# Protocol: (§1) 150 μL FACS buffer is added and cells washed as described above. […] Cells are incubated at 4° C. for 60 minutes. Cells are washed twice with 150 μL FACS buffer, centrifuging at 300 g for 3 minutes after each wash step and aspirating supernatant. Cells are fixed, washed and resuspended for analysis as above. APC signal intensity (geometric mean) is measured by flow cytometry using a Beckman Coulter CYTOFLEX instrument. Data is plotted as percentage of receptor binding.
# (§2) All other steps are performed as per plate 2.
# [2] = target: T2, Human PD-L1 expressed on cells; test: cell-based or functional assay
# [3] = target: T2, Human PD-L1 expressed on cells; test: flow cytometry on CHO hPD-L1 cells, competitor biotin-PD-1-Fc
# Protocol: Plates were centrifuged at 300×g for 3 minutes to supernatant aspirated. […] Cells were washed with 150 μL of PBS and centrifuged at 300 g for 3 minutes. Supernatant was aspirated and 150 μL PBS added. This wash step was repeated.
# [4] = target: T3, Human PD-L1 His (human PD-L1 ECD with C-terminal His tag) (human, UniProt Q9NZQ7 19-238); test: ELISA, biotin-PD-L1 to plate-bound PD-1, antibody titrated
# T3 construct: Biotinylated in ELISA and AlphaScreen assays; also called hPD-L1-his; biotinylated PD-L1 his
# Protocol: Excess protein was removed by washing with PBS-Tween (0.1% v/v) and the wells were blocked with 1% w/v bovine serum albumin (BSA, Sigma) in PBS for 1 hour at room temperature, after which plates were washed as described previously. […] The plate was incubated for 30 minutes before transferring 50 μL to the coated plates. The coated plates were incubated for 1 hour at room temperature. Excess protein was removed by washing with PBS-Tween (0.1% v/v). PD-L1 binding was detected using streptavidin labelled Europium (Perkin Elmer) diluted 1/1000 in DELFIA assay buffer (Perkin Elmer). Plates were washed with TBS (Tris buffered saline)-Tween (0.1% v/v) and 50 μL/well of DELFIA Enhancement solution (Perkin Elmer) was added to the plate. Time-resolved fluorescence was measured at 615 nm on an Envision plate reader (PerkinElmer).
# [5] = target: T4, Cyno PD-L1 FLAG (cynomolgus PD-L1 ECD with FLAG tag) (cynomolgus monkey); test: SPR 37C, antibody captured, PD-L1 analyte
# T4 construct: also called cynomolgus monkey PD-L1-FLAG
# Protocol: (§3) Label-free surface plasmon resonance (SPR) analysis was carried out on the ProteOn XPR36 (BioRad) array SPR machine. An anti-human IgG capture surface was created on a GLC biosensor chip using a combination of anti-human Fc antibodies (Jackson Labs 09-005-008,109-006-008 and 309-006-008) by amine coupling. […] The data was analysed using the 1:1 model inherent to the ProteOn XPR36 analysis software.
# (§4) Label-free surface plasmon resonance (SPR) analysis was performed as per Example 4, except the assay was performed at 37° C.
# [6] = target: T3, Human PD-L1 His (human PD-L1 ECD with …); test: SPR 37C, antibody captured, PD-L1 analyte
# Protocol: as §3, §4
# [7] = target: T2, Human PD-L1 expressed on cells; test: flow cytometry on CHO hPD-L1 cells, competitor biotin-PD-1-Fc, n = 1
# Protocol: as §1
# [8] = target: T2, Human PD-L1 expressed on cells; test: flow cytometry on CHO hPD-L1 cells, competitor biotin-PD-1-Fc, n = 2
# Protocol: as §1
# [9] = target: T2, Human PD-L1 expressed on cells; test: cell-based or functional assay; remark: listed apart in the source
# [10] = target: T2, Human PD-L1 expressed on cells; test: cell-based or functional assay; remark: listed apart in the source
# PD-L2-Fc (R&D Systems) = target: T1, PD-L2-Fc (R&D Systems); test: DELFIA plate assay, biotinylated antibody on plate-bound PD-L2-Fc
# Protocol: Excess protein was removed by washing with PBS-Tween (0.1% v/v) and the wells were blocked with 250 μL/well Pierce Protein Free Blocking Buffer (Thermo, 37572) for 1 hour, after which plates were washed as described previously. […] 100 μL each antibody dilution was added to the plates in duplicate and incubated for 1 hour at room temperature, before washing as stated above. Antibody binding was detected using streptavidin labelled Europium (Perkin Elmer) diluted 1/1000 in DELFIA Assay buffer (Perkin Elmer). Plates were washed with TBS (Tris buffered saline)-Tween (0.1% v/v) and 50 μL/well of DELFIA Enhancement solution (Perkin Elmer) was added to the plate. Time-resolved fluorescence was measured at 615 nm on an Envision plate reader (PerkinElmer).
# [11] = target: T2, Human PD-L1 expressed on cells; test: flow cytometry on CHO hPD-L1 cells, competitor biotin-CD80-Fc, n = 1
# Protocol: as §1, §2
# T2 sequence (Q9NZQ7 19-290 limits assumed): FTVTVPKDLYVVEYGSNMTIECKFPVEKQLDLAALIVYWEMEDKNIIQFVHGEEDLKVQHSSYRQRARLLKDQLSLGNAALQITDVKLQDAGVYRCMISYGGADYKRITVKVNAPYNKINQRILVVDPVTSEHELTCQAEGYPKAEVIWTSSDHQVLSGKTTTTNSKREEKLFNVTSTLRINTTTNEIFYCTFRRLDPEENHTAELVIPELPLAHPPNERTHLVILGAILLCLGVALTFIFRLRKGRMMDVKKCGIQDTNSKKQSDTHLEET
# T3 sequence (Q9NZQ7 19-238 limits assumed): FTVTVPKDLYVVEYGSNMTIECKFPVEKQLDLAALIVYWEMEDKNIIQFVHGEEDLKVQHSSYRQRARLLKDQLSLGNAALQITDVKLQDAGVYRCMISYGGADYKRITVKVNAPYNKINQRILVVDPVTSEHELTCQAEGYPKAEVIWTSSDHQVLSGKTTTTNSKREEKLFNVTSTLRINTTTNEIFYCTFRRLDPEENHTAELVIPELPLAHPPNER
# T4 sequence (chain, as listed by the source limits assumed): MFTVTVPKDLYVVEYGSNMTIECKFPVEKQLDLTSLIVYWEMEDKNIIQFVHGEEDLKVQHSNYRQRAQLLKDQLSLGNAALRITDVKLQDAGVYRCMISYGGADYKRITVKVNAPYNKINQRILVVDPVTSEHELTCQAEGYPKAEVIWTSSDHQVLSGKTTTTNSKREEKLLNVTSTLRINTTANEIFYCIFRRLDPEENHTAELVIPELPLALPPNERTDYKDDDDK
binder,measurement,setting,value
"84G09 (human IgG1) (antibody, V domains shown, also called clone 84609; lead antibody) VH: EVQLVESGGGLVQPGRSLRLSCAASGFTFDDYAMHWVRQTPGKGLEWVSGISWKSNIIGYADSVKGRFTISRDNAKNSLYLQMNSLRAEDTALYYCARDITGSGSYGWFDPWGQGTLVTVSS VL: DIQMTQSPSSLSASVGDRVTITCRASQSISSYLNWYQQKPGKAPKPLIYVASSLQSGVPSSFSGSGSGTDFTLTISSLQPEDFATYYCQQSYSNPITFGQGTRLEIKR",IC50,[1],1.41 nM
same,"mean EC50, IFNγ induction, monocyte-T cell co-culture",[2],0.081 nM
same,IC50,[3],1.82 nM
same,IC50,[4],7.9 nM
same,Kd,[5],0.52 nM
same,Kd,[6],0.43 nM
same,IC50,[7],0.89 nM
same,IC50,[8],1.41 nM
same,"EC50, ADCC reporter assay, n = 1",[9],0.0249 nM
same,"EC50, ADCC reporter assay, n = 2",[9],0.0153 nM
same,"EC50, ADCC reporter assay, n = 3",[9],0.0259 nM
same,"EC50, IL-2 induction, murine T cell hybridoma assay, n = 1",[10],0.24 nM
same,"EC50, IL-2 induction, murine T cell hybridoma assay, n = 2",[10],0.14 nM
same,"EC50, IL-2 induction, murine T cell hybridoma assay, n = 3",[10],0.17 nM
same,binding result,PD-L2-Fc (R&D Systems),no binding (tested: 10 µg/mL top concentration)
same,IC50,[11],1.11 nM
